Non-standard residues stand in square brackets, D forms with d. No end group written: not given here. Aib = CC(C)(N)C(=O)O
B1: GIP derivative of SEQ ID NO: 3 (peptide)
peptide: Y[Aib]EGTFISDYSI[Aib]MDAIAQQDFVNWLLAGGPSSGAPPPSC
B2: GIP derivative of SEQ ID NO: 5 (peptide)
peptide: Y[Aib]EGTFISDYSIQMDAIAQQDFVNWLLAGGPSSGAPPPSC
B3: GIP derivative of SEQ ID NO: 19 (peptide)
peptide: Y[Aib]EGTFISDYSIYLDKQAA[Aib]EFVNWLL[Aib]GHPSSGAPPPSC
B4: GIP derivative of SEQ ID NO: 4 (peptide)
peptide: Y[Aib]EGTFISDYSIYMDAIAQQDFVNWLLAGGPSSGAPPPSC
B5: GIP derivative of SEQ ID NO: 10 (peptide)
peptide: Y[Aib]EGTFISDYSIYLDAQAAKEFIAWLLAGGPSSGAPPPSC
modifications: not fully specified
B6: GIP derivative of SEQ ID NO: 2 (peptide)
peptide: Y[Aib]EGTFISDYSIAMDAIAQQDFVNWLLAGGPSSGAPPPSC
B7: GIP derivative of SEQ ID NO: 26 (peptide)
peptide: Y[Aib]EGTFISDYSIYLDKQAA[Aib]EFVQWLIAGHPSSGAPPPC
B8: GIP derivative of SEQ ID NO: 15 (peptide)
peptide: Y[Aib]EGTFISDYSIAMDKIAQQDFVNWLLAQKPSSGAPPPSC
modifications: not fully specified
B9: GIP derivative of SEQ ID NO: 7 (peptide)
peptide: Y[Aib]EGTFISDYSIYLDAQAQQDFVNWLLAGGPSSGAPPPSC
B10: GIP derivative of SEQ ID NO: 17 (peptide)
peptide: Y[Aib]EGTFISDYSIALEKQAQQDFVNWLLAGGPSSGAPPPSC
B11: GIP derivative of SEQ ID NO: 20 (peptide)
peptide: Y[Aib]EGTFISDYSIYLDKQAA[Aib]EFVNWLL[Aib]GGPSSGAPPPSC
B12: GIP derivative of SEQ ID NO: 12 (peptide)
peptide: Y[Aib]EGTFISDYSIYLDKQAA[Aib]EFVNWLLAQKGKKNDWKHNITQC
modifications: not fully specified
B13: GIP derivative of SEQ ID NO: 21 (peptide)
peptide: Y[Aib]EGTFISDYSI[Aib]LDKQAA[Aib]EFVNWLL[Aib]GGPSSGAPPPSC
B14: GIP derivative of SEQ ID NO: 1 (peptide)
peptide: Y[Aib]EGTFISDYSIAMDAIAQQDFVNWLLAQKPSSGAPPPSC
modifications: not fully specified
B15: GIP derivative of SEQ ID NO: 9 (peptide)
peptide: Y[Aib]EGTFISDYSIYLDAQAAKDFVNWLLAGGPSSGAPPPSC
B16: GIP derivative of SEQ ID NO: 14 (peptide)
peptide: Y[Aib]EGTFISDYSIYLDAQAA[Aib]EFVNWLLAQKC
modifications: not fully specified
B17: GIP derivative of SEQ ID NO: 11 (peptide)
peptide: Y[Aib]EGTFISDYSIAMDAIAQQDFVNWLLAQKGKKNDWKHNITQC
modifications: not fully specified; printed as YAibEGT FISDYSIAMDAIAQQDFVNWLLAQKGKKNDWKHNITQC
B18: GIP derivative of SEQ ID NO: 8 (peptide)
peptide: Y[Aib]EGTFISDYSIYLDAQAA[Aib]DFVNWLLAGGPSSGAPPPSC
B19: GIP derivative of SEQ ID NO: 22 (peptide)
peptide: Y[Aib]EGTFISDYSIYLDKQAA[Aib]EFVNWLLAGHPSSGAPPPSC
B20: GIP derivative of SEQ ID NO: 16 (peptide)
peptide: Y[Aib]EGTFISDYSIAMDGIAQQDFVNWLLAQKPSSGAPPPSC
modifications: not fully specified
B21: GIP derivative of SEQ ID NO: 25 (peptide)
peptide: Y[Aib]EGTFISDYSIYLDKQAA[Aib]EFVQWLI[Aib]GGPSSGAPPPSC
B22: GIP derivative of SEQ ID NO: 18 (peptide)
peptide: Y[Aib]EGTFISDYSIYLDKQAAQEFVNWLLAQKPSSGAPPPSC
B23: GIP derivative of SEQ ID NO: 23 (peptide)
peptide: Y[Aib]EGTFISDYSIYLDKQAQKEFVNWLL[Aib]GGPSSGAPPPSC
B24: GIP derivative of SEQ ID NO: 13 (peptide)
peptide: Y[Aib]EGTFISDYSIYLDKQAA[Aib]EFVNWLLAQKC
modifications: not fully specified
B25: GIP derivative of SEQ ID NO: 6 (peptide)
peptide: Y[Aib]EGTFISDYSIYLDAIAQQDFVNWLLAGGPSSGAPPPSC
B26: GIP derivative of SEQ ID NO: 24 (peptide)
peptide: Y[Aib]EGTFISDYSI[Aib]LDKQAA[Aib]EFVNWLL[Aib]GHPSSGAPPPSC

Target: T1, human GIP receptor (human, UniProt P48546 22-466)
T1 sequence (looked up): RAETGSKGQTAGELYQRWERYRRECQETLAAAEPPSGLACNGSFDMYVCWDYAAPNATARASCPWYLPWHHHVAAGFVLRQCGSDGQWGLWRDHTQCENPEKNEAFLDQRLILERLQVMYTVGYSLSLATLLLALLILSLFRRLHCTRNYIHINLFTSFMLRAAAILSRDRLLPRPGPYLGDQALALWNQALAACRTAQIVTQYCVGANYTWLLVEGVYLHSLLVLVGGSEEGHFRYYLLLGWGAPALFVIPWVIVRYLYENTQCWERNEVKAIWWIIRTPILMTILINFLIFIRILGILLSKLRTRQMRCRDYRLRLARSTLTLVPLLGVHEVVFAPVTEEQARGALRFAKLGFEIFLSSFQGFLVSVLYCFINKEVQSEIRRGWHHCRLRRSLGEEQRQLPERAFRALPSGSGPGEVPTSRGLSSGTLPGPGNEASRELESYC
Experiment: cell-based or functional assay

Binder	In vitro activity of GIP derivative compared to human native GIP in human GIP receptor (%) (cAMP EC50, LANCE cAMP kit, CHO cells)
B1	15.6%
B2	12.1%
B3	66.7%
B4	10.5%
B5	13.9%
B6	13.9%
B7	66.7%
B8	31.1%
B9	19.6%
B10	111%
B11	75.3%
B12	49.2%
B13	123%
B14	49.3%
B15	2%
B16	17.4%
B17	122%
B18	1.9%
B19	71.6%
B20	11.3%
B21	78.3%
B22	13.6%
B23	87.6%
B24	31.1%
B25	17.4%
B26	183%
